Test results from patent US20150093787.

The sequences below were run against Int-His6 (bacteriophage lambda integrase, with IHF; BP Clonase) (Bacteriophage lambda) (UniProt P03700+P0A6X7+P0A6Y1) (assay: cell_activity). Settings: degenerate pool vs attB1-LacZa-attB2, overnight.
Chain of UniProt P03700 (P03700 whole entry, chain 1 of 3): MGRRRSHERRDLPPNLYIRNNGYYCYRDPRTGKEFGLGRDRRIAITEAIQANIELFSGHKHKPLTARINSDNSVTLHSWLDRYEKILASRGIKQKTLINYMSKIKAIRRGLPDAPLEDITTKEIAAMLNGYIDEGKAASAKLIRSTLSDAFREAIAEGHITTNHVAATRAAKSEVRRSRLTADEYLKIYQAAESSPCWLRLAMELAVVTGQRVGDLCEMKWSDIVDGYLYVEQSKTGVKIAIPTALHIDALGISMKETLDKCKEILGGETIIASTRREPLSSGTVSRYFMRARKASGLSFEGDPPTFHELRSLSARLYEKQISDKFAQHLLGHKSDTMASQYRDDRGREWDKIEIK
Chain of UniProt P03700 (P0A6X7 2-99, chain 2 of 3): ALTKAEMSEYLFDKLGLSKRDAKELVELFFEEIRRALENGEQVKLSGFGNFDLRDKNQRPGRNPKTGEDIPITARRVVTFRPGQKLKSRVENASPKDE
Chain of UniProt P03700 (P0A6Y1 whole entry, chain 3 of 3): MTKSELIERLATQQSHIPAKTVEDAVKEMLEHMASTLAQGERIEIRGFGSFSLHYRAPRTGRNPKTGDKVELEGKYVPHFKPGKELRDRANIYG
For “GGGGACAAGTTTGTACAAAAAAGCNNNNN (double strand) [attB1n21-25]”, the binding signal was 14%. “GGGGACCACTTTGTACAAGAAAGCNNNNN (double strand) [attB2n21-25]” gave a binding signal of 21%. “GGGGACAAGTTTGTACAAANNNNNAGGCT (double strand) [attB1n16-20]” was tested, and the binding signal was 1.5%. Work on “GGGGACCACTTTGTACAAGNNNNNTGGGT (double strand) [attB2n16-20]” yielded a binding signal of 0.9%.
